# System: Escherichia coli TOP10
# Experiment: shrunken log2 fold change of peptide-encoding DNA abundance (4.5 h post-induction vs induction); higher = less antimicrobial activity (less host growth inhibition)
# Details: time post-induction: 4.5 h; library: site-saturation at positions 5, 18, 19, 20
# 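Also: peptides expressed intracellularly from a pBAD plasmid library in pooled LB shake-flask culture, induced with 0.3% L-arabinose, DNA abundance read by NGS, three biological replicates, DESeq2 with apeglm shrinkage.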
row,Sequence,shrunken log2 fold change
1,RRIRERPPRLPRPRPRPYNAPRP,-1.26
2,RRIRNRPPRLPRPRPRPSGMPRP,-0.207
3,RRIRTRPPRLPRPRPRPLCVPRP,-0.357
4,RRIRSRPPRLPRPRPRPPLVPRP,-0.0483
5,RRIRPRPPRLPRPRPRPHNNPRP,-0.692
6,RRIRRRPPRLPRPRPRPCWQPRP,0.285
7,RRIRWRPPRLPRPRPRPRIVPRP,0.0526
8,RRIRHRPPRLPRPRPRPSTWPRP,-0.674
9,RRIRWRPPRLPRPRPRPEMLPRP,1.17
10,RRIRNRPPRLPRPRPRPQPYPRP,-0.0389
11,RRIRKRPPRLPRPRPRPSGAPRP,0.539
12,RRIRFRPPRLPRPRPRPMCTPRP,0.0284
13,RRIRWRPPRLPRPRPRPAGTPRP,0.349
14,RRIRGRPPRLPRPRPRPHKSPRP,0.277
15,RRIRWRPPRLPRPRPRPTHSPRP,0.331
16,RRIRARPPRLPRPRPRPGIRPRP,0.475
17,RRIRCRPPRLPRPRPRPISFPRP,-0.113
18,RRIRKRPPRLPRPRPRPPDPPRP,0.889
19,RRIRERPPRLPRPRPRPYSIPRP,-0.0605
20,RRIRKRPPRLPRPRPRPFVMPRP,0.261
21,RRIRYRPPRLPRPRPRPSARPRP,-0.137
22,RRIRKRPPRLPRPRPRPKIFPRP,0.0692

row,Sequence,shrunken log2 fold change
1,RRIRNRPPRLPRPRPRPPDPPRP,0.497
2,RRIRIRPPRLPRPRPRPQDHPRP,-0.466
3,RRIRSRPPRLPRPRPRPHPRPRP,0.375
4,RRIRERPPRLPRPRPRPCQNPRP,-0.0177
5,RRIRDRPPRLPRPRPRPICDPRP,0.137
6,RRIRERPPRLPRPRPRPVVNPRP,-0.257
7,RRIRCRPPRLPRPRPRPVCGPRP,0.268
8,RRIRERPPRLPRPRPRPISPPRP,-0.356
9,RRIRCRPPRLPRPRPRPWDMPRP,-0.0934
10,RRIRPRPPRLPRPRPRPHTAPRP,-0.205
11,RRIRMRPPRLPRPRPRPQPNPRP,0.546
12,RRIRRRPPRLPRPRPRPNADPRP,0.579
13,RRIRSRPPRLPRPRPRPSGVPRP,-0.0112
14,RRIRWRPPRLPRPRPRPSYQPRP,-1.04
15,RRIRRRPPRLPRPRPRPRQEPRP,0.123
16,RRIRERPPRLPRPRPRPKPYPRP,0.082
17,RRIRARPPRLPRPRPRPPQMPRP,0.868
18,RRIRMRPPRLPRPRPRPLVCPRP,0.368
19,RRIRMRPPRLPRPRPRPKNNPRP,0.311
20,RRIRVRPPRLPRPRPRPPARPRP,0.76
21,RRIRIRPPRLPRPRPRPNKRPRP,-0.368
22,RRIRARPPRLPRPRPRPIRWPRP,0.211

row,Sequence,shrunken log2 fold change
1,RRIRCRPPRLPRPRPRPRNDPRP,-0.191
2,RRIRDRPPRLPRPRPRPVIKPRP,0.0149
3,RRIRQRPPRLPRPRPRPEIVPRP,0.143
4,RRIRVRPPRLPRPRPRPQHAPRP,-0.154
5,RRIRKRPPRLPRPRPRPMFCPRP,0.0792
6,RRIRVRPPRLPRPRPRPTQPPRP,-0.0625
7,RRIRMRPPRLPRPRPRPVEVPRP,0.389
8,RRIRVRPPRLPRPRPRPCEDPRP,-0.0254
9,RRIRFRPPRLPRPRPRPQKAPRP,0.0467
10,RRIRGRPPRLPRPRPRPNHDPRP,-0.185
11,RRIRKRPPRLPRPRPRPRRNPRP,0.316
12,RRIRFRPPRLPRPRPRPYEYPRP,-0.488
13,RRIRTRPPRLPRPRPRPISMPRP,-0.262
14,RRIRLRPPRLPRPRPRPWFVPRP,-0.399
15,RRIRERPPRLPRPRPRPSNLPRP,-0.302
16,RRIRHRPPRLPRPRPRPERYPRP,-0.0389
17,RRIRGRPPRLPRPRPRPVKDPRP,0.68
18,RRIRRRPPRLPRPRPRPRVIPRP,0.0591
19,RRIRPRPPRLPRPRPRPKPFPRP,0.129
20,RRIRVRPPRLPRPRPRPEGQPRP,0.197
21,RRIRSRPPRLPRPRPRPKAQPRP,0.103
22,RRIRFRPPRLPRPRPRPHHIPRP,-0.822

row,Sequence,shrunken log2 fold change
1,RRIRRRPPRLPRPRPRPKEYPRP,-0.0535
2,RRIRTRPPRLPRPRPRPQILPRP,-0.105
3,RRIRDRPPRLPRPRPRPCWHPRP,2.46
4,RRIRKRPPRLPRPRPRPWHLPRP,-0.596
5,RRIRDRPPRLPRPRPRPRNNPRP,-0.196
6,RRIRCRPPRLPRPRPRPINCPRP,-0.0582
7,RRIRNRPPRLPRPRPRPICQPRP,-0.0999
8,RRIRSRPPRLPRPRPRPRASPRP,0.346
9,RRIRQRPPRLPRPRPRPADVPRP,0.0705
10,RRIRRRPPRLPRPRPRPPASPRP,0.615
11,RRIRFRPPRLPRPRPRPQGNPRP,0.311
12,RRIRDRPPRLPRPRPRPDIWPRP,0.504
13,RRIRFRPPRLPRPRPRPMGIPRP,-0.23
14,RRIRIRPPRLPRPRPRPAITPRP,-0.706
15,RRIRERPPRLPRPRPRPGAFPRP,-0.0461
16,RRIRYRPPRLPRPRPRPVCYPRP,-0.209
17,RRIRNRPPRLPRPRPRPMQQPRP,-0.0561
18,RRIRDRPPRLPRPRPRPFQPPRP,0.0201
19,RRIRLRPPRLPRPRPRPMPHPRP,0.0155
20,RRIRWRPPRLPRPRPRPISMPRP,-0.209
21,RRIRRRPPRLPRPRPRPVYVPRP,-0.198
22,RRIRCRPPRLPRPRPRPIVVPRP,-0.34

row,Sequence,shrunken log2 fold change
1,RRIRWRPPRLPRPRPRPDACPRP,0.00464
2,RRIRQRPPRLPRPRPRPVKRPRP,0.103
3,RRIRIRPPRLPRPRPRPKKYPRP,-0.546
4,RRIRHRPPRLPRPRPRPPNMPRP,-0.0135
5,RRIRIRPPRLPRPRPRPIMPPRP,-0.825
6,RRIRYRPPRLPRPRPRPWCYPRP,-1.21
7,RRIRTRPPRLPRPRPRPFITPRP,-0.689
8,RRIRGRPPRLPRPRPRPSVAPRP,1.37
9,RRIRCRPPRLPRPRPRPVDCPRP,-0.2
10,RRIRERPPRLPRPRPRPDHQPRP,-0.223
11,RRIRHRPPRLPRPRPRPNDNPRP,-1.03
12,RRIRNRPPRLPRPRPRPPDGPRP,0.313
13,RRIRRRPPRLPRPRPRPAPTPRP,0.793
14,RRIRDRPPRLPRPRPRPSIIPRP,-0.266
15,RRIRDRPPRLPRPRPRPTHQPRP,0.0642
16,RRIRMRPPRLPRPRPRPPKDPRP,0.622
17,RRIRPRPPRLPRPRPRPDVYPRP,-0.194
18,RRIRTRPPRLPRPRPRPMLVPRP,-0.000238
19,RRIRVRPPRLPRPRPRPWWNPRP,-0.0063
20,RRIRDRPPRLPRPRPRPGDIPRP,-0.0568
21,RRIRLRPPRLPRPRPRPYDKPRP,-0.951

# — the supplement of paper PMC9112550, “Optimization of the antimicrobial peptide Bac7 by deep mutational scanning” (BMC Biology, 2022)
